Data on 3 molecules can be found in article PMC3378870 (Nucleic Acids Research, 2012).

Substitutions are numbered along the chain they refer to.

B1: vapO1, 36 bp (dsDNA)
DNA 1: CTCATAATGGATATACGCGTTGTATATCCAGAAAGG
DNA 2: CCTTTCTGGATATACAACGCGTATATCCATTATGAG
B2: VapC toxin of Salmonella enterica serovar Typhimurium LT2 (enzyme)
chain: MLKFMLDTNTCIFTIKNKPEHIRERFNLNTSRMCISSITLMELIYGAEKSLAPERNLAVVEGFISRLEVLDYDTQAAIHTGQIRAELARKGTPVGPYDQMIAGHAGSRGLVVVTNNLREFERIPGIRIEDWC
B3: VapB antitoxin of Salmonella enterica serovar Typhimurium LT2 (natural protein, UniProt Q7CPV2 1-75, looked up)
chain: MHTTLFFSNRTQAVRLPKSISFPEDVKHVEIIAVGRSRIITPVGESWDSWFDGEGASTDFMSTREQPAVQEREGF

Data set [1] addresses T1, VapB;VapC (Salmonella enterica serovar Typhimurium …, UniProt Q7CPV2;Q8ZM86 1-75;1-132, |).
T1 sequence 1: B3 chain
T1 sequence 2: B2 chain
Put plainly: EMSA. On the technique in general: Mobility shift assays separate free from complexed probe on a gel.

Data set [2] concerns the molecule itself.
In data set [3] the target is B2. Put plainly: native gel or EMSA.
Data set [4] has as its target T2, VapC A76S variant (Salmonella enterica serovar Typhimurium …, UniProt Q8ZM86 1-132, A76S).
T2 sequence: B2 chain with A76S
Put plainly: native gel or EMSA.

Data set [5] has as its target T3, VapC I44A variant (Salmonella enterica serovar Typhimurium …, UniProt Q8ZM86 1-132, I44A).
T3 sequence: B2 chain with I44A
Put plainly: native gel or EMSA.

The target of data set [6] is T4, VapC L43A variant (Salmonella enterica serovar Typhimurium …, UniProt Q8ZM86 1-132, L43A).
T4 sequence: B2 chain with L43A
Put plainly: native gel or EMSA.

Data set [7] deals with T5, VapC Y72A variant (Salmonella enterica serovar Typhimurium …, UniProt Q8ZM86 1-132, Y72A).
T5 sequence: B2 chain with Y72A
Put plainly: native gel or EMSA.

As to B1, the binding result in data set [1] is “binds”.
On to B2, for which, in data set [2], the “stoichiometry N” value came to 2.
Consider B3, for which the binding result in data set [3], in data set [4], in data set [5], in data set [6] and in data set [7] was “binds” throughout.

A word on the stoichiometry N: it is a count of units in the complex or per binding partner.
